Results as given in WO2001072771A2 (dated 2003).
Positions of bridges follow the written chain, without caps; N, C: chain ends. No end group written: not given here.

Experiments:
[1] = biological target: human IGF-1 receptor (HIGF-1R) (human, UniProt P08069 31-1367); assay: displacement of 125I-IGF-1 from HIGF-1R
[2] = biological target: T1, soluble human insulin receptor (IR-Fc) (human, UniProt P06213 28-956); assay: assay not given
T1 construct: extracellular domain; retains the beta-alpha-alpha-beta structure; also called sIR; sIR-Fc

sIGF-1R-Fc = biological target: T2, sIGF-1R-Fc (UniProt P08069 31-935); assay: phage ELISA
T2 construct: also called slGF-1R-Fc; not shown: Fc part not described

Binder | binding result (sIGF-1R-Fc) | further results
DYKDCWARPCGDAANFYDWFVQQASKK (disulfide 5-10 (inferred), synthetic; biotinylated where printed as b-C1 or D112; also called D112; b-C1) [C1 peptide] | – | binding result [1]: binds
APTFYAWFNQQTGGGS (on phage; also called ~J229) [IM445 (Δ-12-3 #6)] | – | IC50 [2]: ~2.4 µM
HPTSKEIYAKLLGGGS (on phage; motif 7) [IM449 (Δ-12-3 #43)] | no binding | –
HPSTNQMLMKLFGGGS (on phage; motif 7) [IM450 (Δ-12-3 #28)] | no binding | –
HPPLEHLKAFLLGGGS (on phage; motif 7; also called ~J228) [IM452 (Δ-12-3 #23)] | no binding | –
HPPLSELKLFLIGGGS (on phage; motif 7) [IM451 (Δ-12-3 #34)] | no binding | –
HPSLSDMRWILLGGGS (on phage; motif 7) [IM459 (Δ-12-3* #60)] | no binding | –
